In paper PMC9482650, “Quantitative fragmentomics allow affinity mapping of interactomes” (Nature Communications, 2022):

How the values were obtained:
Assay in all cases: holdup assay
Parameters in all cases: key: below the threshold = too weak to quantify, mostly under pKd 3.1 to 4
PREX1_1, Q8TCU6 = biological target: PREX1_1, Q8TCU6
MPDZ_3, O75970 = biological target: T1, MPDZ_3, O75970
T1 sequence (O75970 372-473, limits assumed, looked up): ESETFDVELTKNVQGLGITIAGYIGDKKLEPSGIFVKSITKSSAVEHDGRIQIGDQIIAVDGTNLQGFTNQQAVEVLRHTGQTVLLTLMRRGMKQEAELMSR

PDLIM4, P50479 = biological target: PDLIM4, P50479
Sequence of PDLIM4, P50479 (P50479 1-83): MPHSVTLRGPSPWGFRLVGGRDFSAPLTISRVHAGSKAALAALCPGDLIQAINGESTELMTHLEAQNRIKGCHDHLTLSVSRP

PDZD4, Q76G19 = biological target: T2, PDZD4, Q76G19
T2 sequence (Q76G19 125-224, limits assumed, looked up): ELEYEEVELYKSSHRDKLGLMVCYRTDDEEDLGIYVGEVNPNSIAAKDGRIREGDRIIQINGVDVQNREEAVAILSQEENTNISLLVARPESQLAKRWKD

AHNAK2, Q8IVF2 = biological target: AHNAK2, Q8IVF2
Sequence of AHNAK2, Q8IVF2 (Q8IVF2 108-193): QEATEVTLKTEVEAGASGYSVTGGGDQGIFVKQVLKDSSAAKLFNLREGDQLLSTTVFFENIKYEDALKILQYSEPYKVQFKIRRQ

DLG2_1, Q15700 = biological target: DLG2_1, Q15700
SDCBP_1, O00560 = biological target: SDCBP_1, O00560
Sequence of SDCBP_1, O00560 (O00560 111-198): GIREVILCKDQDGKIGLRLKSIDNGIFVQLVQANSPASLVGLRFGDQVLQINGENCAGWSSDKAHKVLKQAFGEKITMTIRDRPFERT

DVL2, O14641 = details: plain residues with an end cap or a label only (N-terminal biotin on a linker: (peg)3)
Sequence of DVL2, O14641 (O14641 260-359): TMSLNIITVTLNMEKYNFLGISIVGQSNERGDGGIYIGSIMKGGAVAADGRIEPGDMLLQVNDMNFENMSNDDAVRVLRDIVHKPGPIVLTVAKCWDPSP

MPP5, Q8N3R9 = biological target: T3, MPP5, Q8N3R9
T3 sequence (Q8N3R9 251-346, limits assumed, looked up): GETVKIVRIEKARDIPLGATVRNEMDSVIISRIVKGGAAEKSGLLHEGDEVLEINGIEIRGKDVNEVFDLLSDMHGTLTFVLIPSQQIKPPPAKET

TJP3_2, O95049 = biological target: T4, TJP3_2, O95049
T4 sequence (O95049 190-282, limits assumed, looked up): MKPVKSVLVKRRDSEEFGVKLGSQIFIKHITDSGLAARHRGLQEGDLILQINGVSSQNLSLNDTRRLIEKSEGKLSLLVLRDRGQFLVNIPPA

PDZD2_3, O15018 = biological target: T5, PDZD2_3, O15018
T5 sequence (O15018 581-682, limits assumed, looked up): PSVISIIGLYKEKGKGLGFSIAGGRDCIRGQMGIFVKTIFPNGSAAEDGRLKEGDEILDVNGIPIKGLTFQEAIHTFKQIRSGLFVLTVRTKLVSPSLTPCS

PREX2_2, Q70Z35 = biological target: T6, PREX2_2, Q70Z35
T6 sequence (Q70Z35 672-764, limits assumed, looked up): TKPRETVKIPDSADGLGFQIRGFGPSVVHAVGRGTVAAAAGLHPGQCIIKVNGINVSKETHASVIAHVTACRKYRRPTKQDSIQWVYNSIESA

PDZRN4_2, Q6ZMN7 = biological target: PDZRN4_2, Q6ZMN7
Sequence of PDZRN4_2, Q6ZMN7 (Q6ZMN7 389-498): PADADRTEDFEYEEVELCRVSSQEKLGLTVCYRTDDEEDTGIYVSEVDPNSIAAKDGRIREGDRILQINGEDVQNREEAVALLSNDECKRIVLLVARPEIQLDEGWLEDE

Inadl_7, Q8NI35 = biological target: Inadl_7, Q8NI35
Sequence of Inadl_7, Q8NI35 (Q8NI35 1219-1332): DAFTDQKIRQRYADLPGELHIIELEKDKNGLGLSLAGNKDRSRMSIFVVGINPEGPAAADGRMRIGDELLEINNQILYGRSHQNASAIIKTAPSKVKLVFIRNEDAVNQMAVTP

IL16_2, Q14005 = biological target: IL16_2, Q14005
Sequence of IL16_2, Q14005 (Q14005 350-450): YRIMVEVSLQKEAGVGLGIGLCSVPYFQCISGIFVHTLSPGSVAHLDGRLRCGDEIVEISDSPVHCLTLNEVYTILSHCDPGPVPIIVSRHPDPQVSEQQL

NOS1, P29475 = biological target: NOS1, P29475
Sequence of NOS1, P29475 (P29475 9-101): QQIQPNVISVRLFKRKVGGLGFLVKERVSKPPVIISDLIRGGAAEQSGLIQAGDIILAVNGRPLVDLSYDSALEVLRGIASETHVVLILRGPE

SHANK2, Q9UPX8 = biological target: T7, SHANK2, Q9UPX8
T7 sequence (Q9UPX8 621-730, limits assumed, looked up): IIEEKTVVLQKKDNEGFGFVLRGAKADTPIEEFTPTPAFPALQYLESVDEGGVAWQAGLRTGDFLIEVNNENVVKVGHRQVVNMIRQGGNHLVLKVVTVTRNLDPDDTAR

PDZD11, Q5EBL8 = biological target: T8, PDZD11, Q5EBL8
T8 sequence (Q5EBL8 42-139, limits assumed, looked up): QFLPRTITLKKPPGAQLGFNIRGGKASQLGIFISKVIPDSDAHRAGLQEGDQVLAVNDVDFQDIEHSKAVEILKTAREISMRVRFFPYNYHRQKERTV

LNX2_4, Q8N448 = biological target: T9, LNX2_4, Q8N448
T9 sequence (Q8N448 595-690, limits assumed, looked up): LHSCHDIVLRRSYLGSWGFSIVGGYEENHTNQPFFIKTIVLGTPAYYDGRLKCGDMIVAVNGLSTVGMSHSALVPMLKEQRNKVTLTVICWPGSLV

HTRA1, Q92743 = biological target: HTRA1, Q92743
Sequence of HTRA1, Q92743 (Q92743 360-477): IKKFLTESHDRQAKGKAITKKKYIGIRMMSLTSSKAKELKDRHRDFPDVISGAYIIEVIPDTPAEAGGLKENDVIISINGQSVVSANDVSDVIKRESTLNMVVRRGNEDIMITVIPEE

TJP3_1, O95049 = biological target: T10, TJP3_1, O95049
T10 sequence (O95049 6-103, limits assumed, looked up): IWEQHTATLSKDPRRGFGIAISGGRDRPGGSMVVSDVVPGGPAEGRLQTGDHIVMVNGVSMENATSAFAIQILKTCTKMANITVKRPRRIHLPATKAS

APBA3_2, O96018 = biological target: T11, APBA3_2, O96018
T11 sequence (O96018 480-570, limits assumed, looked up): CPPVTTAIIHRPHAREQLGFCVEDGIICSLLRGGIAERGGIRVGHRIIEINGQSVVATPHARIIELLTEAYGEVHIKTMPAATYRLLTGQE

MAGI3_5, Q5TCQ9 = biological target: MAGI3_5, Q5TCQ9
Sequence of MAGI3_5, Q5TCQ9 (Q5TCQ9 847-941): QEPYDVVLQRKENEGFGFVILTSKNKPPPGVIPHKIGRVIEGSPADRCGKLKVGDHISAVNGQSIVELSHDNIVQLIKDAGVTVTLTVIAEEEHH

RGS12, O14924 = biological target: T12, RGS12, O14924; details: plain residues with an end cap or a label only (N-terminal biotin on a linker: (peg)3)
T12 sequence (O14924 17-108, limits assumed, looked up): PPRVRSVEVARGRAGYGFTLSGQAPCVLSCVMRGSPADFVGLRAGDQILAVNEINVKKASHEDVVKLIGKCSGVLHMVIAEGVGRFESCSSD

DLG5_2, Q8TDM6 = biological target: DLG5_2, Q8TDM6
Sequence of DLG5_2, Q8TDM6 (Q8TDM6 714-800): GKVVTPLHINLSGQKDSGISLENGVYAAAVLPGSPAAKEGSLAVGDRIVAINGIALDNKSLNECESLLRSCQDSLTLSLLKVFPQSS

RIMS2, Q9UQ26 = details: plain residues with an end cap or a label only (N-terminal biotin on a linker: (peg)3)
Sequence of RIMS2, Q9UQ26 (Q9UQ26 637-758): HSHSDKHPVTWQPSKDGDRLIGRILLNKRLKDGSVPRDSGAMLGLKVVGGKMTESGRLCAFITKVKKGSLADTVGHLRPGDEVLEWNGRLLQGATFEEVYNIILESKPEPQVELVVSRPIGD

[1] = plain residues with an end cap or a label only (N-terminal biotin on a linker: (peg)3)
[2] = modified: phospho on T at position -2 from the C-terminal residue

Measured: pKd

Sequence of PREX1_1, Q8TCU6 (Q8TCU6 608-718): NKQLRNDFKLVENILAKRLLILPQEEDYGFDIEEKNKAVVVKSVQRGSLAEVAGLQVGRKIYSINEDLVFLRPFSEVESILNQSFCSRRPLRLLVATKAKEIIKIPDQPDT

RRRRSQSRESQC [HBV-HBc, P03193]
4.51: DLG2_1, Q15700; [1]
below the threshold: PREX1_1, Q8TCU6; [1] | MPDZ_3, O75970; [1] | PDLIM4, P50479; [1] | PDZD4, Q76G19; [1] | AHNAK2, Q8IVF2; [1] | SDCBP_1, O00560; [1] | DVL2, O14641 | MPP5, Q8N3R9; [1] | TJP3_2, O95049; [1] | PDZD2_3, O15018; [1] | PREX2_2, Q70Z35; [1] | PDZRN4_2, Q6ZMN7; [1] | Inadl_7, Q8NI35; [1] | IL16_2, Q14005; [1] | NOS1, P29475; [1] | SHANK2, Q9UPX8; [1] | PDZD11, Q5EBL8; [1] | HTRA1, Q92743; [1] | TJP3_1, O95049; [1] | APBA3_2, O96018; [1] | MAGI3_5, Q5TCQ9; [1] | RGS12, O14924 | DLG5_2, Q8TDM6; [1] | RIMS2, Q9UQ26
3.9: LNX2_4, Q8N448; [1]

SSRTRRETQL [HPV16-E6_-2P, P03126]
3.63: NOS1, P29475; [2]
4.26: PDZRN4_2, Q6ZMN7; [2]
below the threshold: PREX1_1, Q8TCU6; [2] | MPDZ_3, O75970; [2] | PDLIM4, P50479; [2] | PDZD4, Q76G19; [2] | AHNAK2, Q8IVF2; [2] | DLG2_1, Q15700; [2] | SDCBP_1, O00560; [2] | MPP5, Q8N3R9; [2] | TJP3_2, O95049; [2] | PDZD2_3, O15018; [2] | PREX2_2, Q70Z35; [2] | Inadl_7, Q8NI35; [2] | IL16_2, Q14005; [2] | SHANK2, Q9UPX8; [2] | PDZD11, Q5EBL8; [2] | LNX2_4, Q8N448; [2] | HTRA1, Q92743; [2] | TJP3_1, O95049; [2] | APBA3_2, O96018; [2] | MAGI3_5, Q5TCQ9; [2] | DLG5_2, Q8TDM6; [2]

QQSMSSADSTQA [SARS-Cov2-N, P0DTC9]
below the threshold: PREX1_1, Q8TCU6; [1] | MPDZ_3, O75970; [1] | PDLIM4, P50479; [1] | PDZD4, Q76G19; [1] | AHNAK2, Q8IVF2; [1] | DLG2_1, Q15700; [1] | SDCBP_1, O00560; [1] | DVL2, O14641 | MPP5, Q8N3R9; [1] | TJP3_2, O95049; [1] | PDZD2_3, O15018; [1] | PREX2_2, Q70Z35; [1] | PDZRN4_2, Q6ZMN7; [1] | Inadl_7, Q8NI35; [1] | IL16_2, Q14005; [1] | NOS1, P29475; [1] | SHANK2, Q9UPX8; [1] | PDZD11, Q5EBL8; [1] | LNX2_4, Q8N448; [1] | HTRA1, Q92743; [1] | TJP3_1, O95049; [1] | APBA3_2, O96018; [1] | MAGI3_5, Q5TCQ9; [1] | RGS12, O14924 | DLG5_2, Q8TDM6; [1] | RIMS2, Q9UQ26

RYEDTTLVEDTVL [WNV-NS5, Q9Q6P4]
4.58: HTRA1, Q92743; [1]
below the threshold: PREX1_1, Q8TCU6; [1] | MPDZ_3, O75970; [1] | PDLIM4, P50479; [1] | PDZD4, Q76G19; [1] | AHNAK2, Q8IVF2; [1] | SDCBP_1, O00560; [1] | DVL2, O14641 | MPP5, Q8N3R9; [1] | PDZD2_3, O15018; [1] | PREX2_2, Q70Z35; [1] | PDZRN4_2, Q6ZMN7; [1] | Inadl_7, Q8NI35; [1] | IL16_2, Q14005; [1] | PDZD11, Q5EBL8; [1] | LNX2_4, Q8N448; [1] | TJP3_1, O95049; [1] | APBA3_2, O96018; [1] | MAGI3_5, Q5TCQ9; [1] | RGS12, O14924 | DLG5_2, Q8TDM6; [1] | RIMS2, Q9UQ26
3.64: NOS1, P29475; [1]
4.28: DLG2_1, Q15700; [1]
4.25: TJP3_2, O95049; [1]
4.59: SHANK2, Q9UPX8; [1]
